Results from the supplement of paper PMC7877785.
± gives the uncertainty stated by the source.

Experiment: self-splicing fitness, log relative to wild type (ln ratio); higher = more splicing; Tetrahymena group I intron in knt gene, E. coli kanamycin selection, DiMSum; sequences stand for … in CUCUCU…GGAGGGAAAAGUUAUCAGGCAUGCACCUGGUAGCUAGUCUUUAAACCAAUAGAUUGCAUCGGUUUAAAAGGCAAGACCGUCAAAUUGCGGGAAAGGGGUCAACAGCCGUUCAGUACCAAGUCUCAGGGGAAACUUUGAGAUGGCCUUGCAAAGGGUAUGGUAAUAAGCUGACGGACAUGGUCCUAACCACGCAGCCAAGUCCUAAGUCAACAGAUCUUCUGUUGAUAUGGAUGCAGUUCACAGACUAAAUGUCGGUCGGGGAAGAUGUAUUCUUCUCAUAAGAUAUAGUCGGACCUCUCCUUAAUGGGAGCUAGCGGAUGAAGUGAUGCAACACUGGAGCCGCUGGGAACUAAUUUGUAUGCGAAAGUAUAUUGAUUAGUUUUGGAGUACUCGUGGUCG
In short: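 A randomised library covering all eight P1ex-region intron nucleotides was built with the intron in the knt kanamycin-resistance gene on pET-22b(+) and held in E. coli BL21(DE3). Cells were grown overnight at 37°C or 30°C on LB agar, with or without 25 μg/mL kanamycin, plus 100 μg/mL carbenicillin, 50 μM IPTG and 0.2% rhamnose, and pooled colonies were amplicon-sequenced on an Illumina HiSeq 2500. DiMSum fitness is the error-weighted combination of wild-type-normalised replicate fold changes, kanamycin versus none.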

| Sequence | self-splicing fitness (ln) (30 °C) | self-splicing fitness (ln) (37 °C) |
| --- | --- | --- |
| CCCAAGCAAUAUUACGGGAC | -4.01 ± 0.18 | -2.67 ± 0.15 |
| CCCAAGCAAUAUUACGGGAG | -3.79 ± 0.13 | -2.29 ± 0.13 |
| CCCAAGCAAUAUUACGGGCG | -3.29 ± 0.17 | -1.79 ± 0.15 |
| CCCAAGCAAUAUUACGGGGA | -2.82 ± 0.13 | -1.62 ± 0.09 |
| CCCAAGCAAUAUUACGGGGU | -3.46 ± 0.12 | -2.35 ± 0.16 |
| CCCAAGCAAUAUUACGGUAC | -4.14 ± 0.23 | -2.71 ± 0.17 |
| CCCAAGCAAUAUUACGGUUC | -3.38 ± 0.13 | -2.6 ± 0.18 |
| CCCAAGCAAUAUUACGUCAC | -3.87 ± 0.2 | -2.82 ± 0.15 |
| CCCAAGCAAUAUUACGUCCC | -3.35 ± 0.43 |  |
| CCCAAGCAAUAUUACGUCUG | -3.87 ± 0.19 | -2.18 ± 0.21 |
| CCCAAGCAAUAUUACGUGGA | -0.971 ± 0.052 | -0.376 ± 0.061 |
| CCCAAGCAAUAUUACGUGUA | -2.85 ± 0.096 | -2.3 ± 0.11 |
| CCCAAGCAAUAUUACGUUCC | -3.87 ± 0.37 | -2.3 ± 0.37 |
| CCCCAGCAAUAUUACGACAG | -3.96 ± 0.12 | -2.92 ± 0.14 |
| CCCCAGCAAUAUUACGACAU | -3.936 ± 0.02 | -2.94 ± 0.037 |
| CCCCAGCAAUAUUACGACCC | -0.862 ± 0.32 |  |
| CCCCAGCAAUAUUACGACUC | -2.97 ± 0.12 | -2.11 ± 0.21 |
| CCCCAGCAAUAUUACGAGUG | -3.21 ± 0.12 | -2.92 ± 0.14 |
| CCCCAGCAAUAUUACGAGUU | -4.17 ± 0.18 | -2.31 ± 0.17 |
| CCCCAGCAAUAUUACGAUUC | -3.81 ± 0.2 | -2.46 ± 0.23 |
| CCCCAGCAAUAUUACGCCUU | -3 ± 0.22 | -2.4 ± 0.37 |
| CCCCAGCAAUAUUACGCGAG | -3.18 ± 0.15 | -3.14 ± 0.31 |
| CCCCAGCAAUAUUACGGAAU | -3.31 ± 0.13 | -2.4 ± 0.2 |
| CCCCAGCAAUAUUACGGAGU | -4.02 ± 0.15 | -2.75 ± 0.15 |
| CCCCAGCAAUAUUACGGAUU | -4.3 ± 0.16 | -2.37 ± 0.13 |

| Sequence | self-splicing fitness (ln) (30 °C) | self-splicing fitness (ln) (37 °C) |
| --- | --- | --- |
| CCCCAGCAAUAUUACGGCCG | -3.62 ± 0.17 | -1.88 ± 0.16 |
| CCCCAGCAAUAUUACGGCUG | -4.06 ± 0.19 | -1.99 ± 0.15 |
| CCCCAGCAAUAUUACGGGGU | -3.9 ± 0.12 | -2.54 ± 0.11 |
| CCCCAGCAAUAUUACGGGUG | -3.8 ± 0.12 | -2.91 ± 0.13 |
| CCCCAGCAAUAUUACGGUAG | -2 ± 0.065 | -1.31 ± 0.097 |
| CCCCAGCAAUAUUACGGUGU | -3.26 ± 0.11 | -1.94 ± 0.1 |
| CCCCAGCAAUAUUACGGUUU | -3.85 ± 0.16 | -3.12 ± 0.21 |
| CCCCAGCAAUAUUACGUCAC | -4.02 ± 0.23 | -2.93 ± 0.26 |
| CCCCAGCAAUAUUACGUCCA | -3.34 ± 0.19 | -3.2 ± 0.28 |
| CCCCAGCAAUAUUACGUCUC | -3.78 ± 0.16 | -3.61 ± 0.19 |
| CCCCAGCAAUAUUACGUGCU | -3.34 ± 0.14 | -2.47 ± 0.16 |
| CCCCAGCAAUAUUACGUUAG | -3.99 ± 0.15 | -2.97 ± 0.15 |
| CCCCAGCAAUAUUACGUUGA | -4.14 ± 0.13 | -2.79 ± 0.12 |
| CCCGAGCAAUAUUACGAAAC |  | -0.43 ± 0.4 |
| CCCGAGCAAUAUUACGACUG | -4.27 ± 0.22 | -2.56 ± 0.2 |
| CCCGAGCAAUAUUACGAGAU | -3.49 ± 0.21 | -2.59 ± 0.3 |
| CCCGAGCAAUAUUACGAGGU | -3.75 ± 0.15 | -3.11 ± 0.17 |
| CCCGAGCAAUAUUACGAUUG | -2.74 ± 0.18 | -2.63 ± 0.22 |
| CCCGAGCAAUAUUACGAUUU | -3.84 ± 0.23 | -2.15 ± 0.2 |
| CCCGAGCAAUAUUACGCACC | -3.46 ± 0.28 | -2.35 ± 0.4 |
| CCCGAGCAAUAUUACGCACG |  | -3.26 ± 0.47 |
| CCCGAGCAAUAUUACGCAGA | -3.96 ± 0.25 | -2.71 ± 0.33 |
| CCCGAGCAAUAUUACGCGGA | -3.21 ± 0.28 | -2.23 ± 0.2 |
| CCCGAGCAAUAUUACGCUAG | -3.59 ± 0.37 | -1.73 ± 0.36 |
| CCCGAGCAAUAUUACGCUGG | -3.13 ± 0.16 | -2.68 ± 0.26 |

| Sequence | self-splicing fitness (ln) (30 °C) | self-splicing fitness (ln) (37 °C) |
| --- | --- | --- |
| CCCGAGCAAUAUUACGCUUG |  | -2.06 ± 0.33 |
| CCCGAGCAAUAUUACGGAAA | -2.2 ± 0.32 | -1.57 ± 0.33 |
| CCCGAGCAAUAUUACGGCAA | -3.03 ± 0.35 | -2.32 ± 0.22 |
| CCCGAGCAAUAUUACGGCAG | -2.53 ± 0.29 | -2.65 ± 0.44 |
| CCCGAGCAAUAUUACGGCUG | -4.35 ± 0.39 | -2.72 ± 0.33 |
| CCCGAGCAAUAUUACGUGGA | -3.08 ± 0.21 | -2.81 ± 0.22 |
| CCCGAGCAAUAUUACGUUCC | -2.86 ± 0.4 |  |
| CCCGAGCAAUAUUACGUUGC | -3.75 ± 0.12 | -2.71 ± 0.16 |
| CCCGAGCAAUAUUACGUUUG | -4.07 ± 0.23 | -2.07 ± 0.14 |
| CCCUAGCAAUAUUACGACGU | -3.83 ± 0.29 | -3.29 ± 0.47 |
| CCCUAGCAAUAUUACGACUG | -4.39 ± 0.36 | -2.92 ± 0.27 |
| CCCUAGCAAUAUUACGAGGA | -1.66 ± 0.074 | -0.53 ± 0.075 |
| CCCUAGCAAUAUUACGAUAU | -2.92 ± 0.15 | -2.97 ± 0.27 |
| CCCUAGCAAUAUUACGAUGA | -3.24 ± 0.18 | -2.35 ± 0.2 |
| CCCUAGCAAUAUUACGCAAG | -3.65 ± 0.28 | -2.06 ± 0.23 |
| CCCUAGCAAUAUUACGCAGC | -3 ± 0.17 | -3.24 ± 0.35 |
| CCCUAGCAAUAUUACGCAUG | -2.33 ± 0.14 | -2.73 ± 0.2 |
| CCCUAGCAAUAUUACGCCGG | -3.09 ± 0.17 | -1.6 ± 0.22 |
| CCCUAGCAAUAUUACGCCGU | -2.57 ± 0.25 | -2.42 ± 0.39 |
| CCCUAGCAAUAUUACGCGAC | -4.32 ± 0.36 | -2.67 ± 0.33 |
| CCCUAGCAAUAUUACGCGGG | -3.75 ± 0.23 | -1.92 ± 0.2 |
| CCCUAGCAAUAUUACGGAGU | -4.58 ± 0.36 | -2.99 ± 0.35 |
| CCCUAGCAAUAUUACGGAUU | -4.34 ± 0.23 | -2.26 ± 0.16 |
| CCCUAGCAAUAUUACGGCUA | -2.53 ± 0.17 | -3.13 ± 0.31 |
| CCCUAGCAAUAUUACGGGAC | -2.48 ± 0.18 | -1.87 ± 0.23 |

| Sequence | self-splicing fitness (ln) (30 °C) | self-splicing fitness (ln) (37 °C) |
| --- | --- | --- |
| CCCUAGCAAUAUUACGGUAU | -3.5 ± 0.14 | -2.13 ± 0.14 |
| CCCUAGCAAUAUUACGUAAG | -3.8 ± 0.18 | -2.04 ± 0.17 |
| CCCUAGCAAUAUUACGUAUA | -3.24 ± 0.25 | -2.89 ± 0.4 |
| CCCUAGCAAUAUUACGUCGG | -3.32 ± 0.22 | -2.57 ± 0.23 |
| CCCUAGCAAUAUUACGUCUG | -2.99 ± 0.18 | -3.17 ± 0.22 |
| CCCUAGCAAUAUUACGUGAG | -3.42 ± 0.22 | -2.38 ± 0.23 |
| CCCUAGCAAUAUUACGUUGA | -3.23 ± 0.19 | -2.83 ± 0.23 |
| CCCUAGCAAUAUUACGUUUA | -2.91 ± 0.14 | -2.16 ± 0.16 |
| CCGAAGCAAUAUUACGAAAA | -1.87 ± 0.26 | -1.09 ± 0.27 |
| CCGAAGCAAUAUUACGACGA | -1.44 ± 0.12 | -0.711 ± 0.13 |
| CCGAAGCAAUAUUACGAGGA | -4.32 ± 0.39 | -2.54 ± 0.21 |
| CCGAAGCAAUAUUACGAGGU | -3.79 ± 0.2 | -2.9 ± 0.26 |
| CCGAAGCAAUAUUACGAGUG | -0.855 ± 0.049 | -0.0149 ± 0.062 |
| CCGAAGCAAUAUUACGAUAA | -2.83 ± 0.12 | -2.96 ± 0.25 |
| CCGAAGCAAUAUUACGAUAC | -3.86 ± 0.47 | -1.95 ± 0.26 |
| CCGAAGCAAUAUUACGAUGC | -4.36 ± 0.26 | -2.34 ± 0.23 |
| CCGAAGCAAUAUUACGAUUC |  | -2.07 ± 0.25 |
| CCGAAGCAAUAUUACGAUUG | -1.16 ± 0.093 | -0.0885 ± 0.095 |
| CCGAAGCAAUAUUACGCAGA | -2.91 ± 0.38 | -2.57 ± 0.33 |
| CCGAAGCAAUAUUACGCAUG | -1.84 ± 0.11 | -0.892 ± 0.12 |
| CCGAAGCAAUAUUACGCCAC |  | -1.9 ± 0.34 |
| CCGAAGCAAUAUUACGCCGU | -2.44 ± 0.27 | -1.04 ± 0.36 |
